Assay results: publication PMC2756588

T1: Pex13, P80667
T1 sequence (P80667 295-386, looked up): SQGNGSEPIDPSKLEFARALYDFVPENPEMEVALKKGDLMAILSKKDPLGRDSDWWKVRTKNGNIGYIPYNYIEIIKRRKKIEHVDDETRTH

T2: Hse1, P38753
T2 sequence (P38753 208-285, looked up): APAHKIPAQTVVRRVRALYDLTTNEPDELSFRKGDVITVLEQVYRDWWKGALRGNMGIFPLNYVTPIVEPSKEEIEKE

T3: Fus1, P11710
T3 sequence (P11710 432-512, looked up): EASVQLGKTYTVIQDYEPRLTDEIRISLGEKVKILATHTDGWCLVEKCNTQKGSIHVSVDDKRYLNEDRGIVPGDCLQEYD

T4: Nbp2, Q12163
T4 sequence (Q12163 103-180, looked up): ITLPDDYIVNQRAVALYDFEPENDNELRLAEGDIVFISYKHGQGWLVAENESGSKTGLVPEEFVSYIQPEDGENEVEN

T5: Sla1-3, P32790
T5 sequence (P32790 344-424, looked up): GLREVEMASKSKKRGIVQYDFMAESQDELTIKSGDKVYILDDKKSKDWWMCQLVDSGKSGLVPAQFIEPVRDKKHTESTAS

T6: Lsb4, P32793
T6 sequence (P32793 402-468, looked up): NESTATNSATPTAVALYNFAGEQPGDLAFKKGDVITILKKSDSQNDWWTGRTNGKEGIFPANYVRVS

T7: Bbc1, P47068
T7 sequence (P47068 1-78, looked up): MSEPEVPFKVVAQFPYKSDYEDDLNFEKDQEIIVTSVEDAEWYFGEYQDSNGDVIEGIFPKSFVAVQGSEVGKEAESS

T8: Lsb1, P53281
T8 sequence (P53281 45-122, looked up): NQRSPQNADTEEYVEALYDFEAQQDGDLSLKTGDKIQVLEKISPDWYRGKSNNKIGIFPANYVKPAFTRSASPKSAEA

T9: Myo5, Q04439
T9 sequence (Q04439 1072-1160, looked up): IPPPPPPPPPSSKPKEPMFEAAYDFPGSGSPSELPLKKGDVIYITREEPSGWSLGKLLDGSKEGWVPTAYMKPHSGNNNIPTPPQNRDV

T10: Sla1-2, P32790
T10 sequence (P32790 60-140, looked up): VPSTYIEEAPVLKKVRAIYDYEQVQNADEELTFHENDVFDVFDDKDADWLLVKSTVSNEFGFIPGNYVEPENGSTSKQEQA

T11: Bzz1-1, P38822
T11 sequence (P38822 478-572, looked up): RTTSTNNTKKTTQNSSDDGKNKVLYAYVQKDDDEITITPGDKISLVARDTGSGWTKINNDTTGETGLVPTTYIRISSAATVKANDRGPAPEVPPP

T12: Bzz1-2, P38822
T12 sequence (P38822 568-633, looked up): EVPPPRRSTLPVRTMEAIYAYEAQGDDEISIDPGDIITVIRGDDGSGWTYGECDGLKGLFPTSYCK

T13: Cyk3, Q07533
T13 sequence (Q07533 1-83, looked up): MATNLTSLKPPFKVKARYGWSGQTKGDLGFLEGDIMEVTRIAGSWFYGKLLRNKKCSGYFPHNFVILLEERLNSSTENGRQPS

T14: Boi2, P39969
T14 sequence (P39969 32-116, looked up): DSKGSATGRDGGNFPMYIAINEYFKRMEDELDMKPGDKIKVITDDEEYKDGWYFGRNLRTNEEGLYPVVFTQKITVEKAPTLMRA

T15: Abp1, P15891
T15 sequence (P15891 535-592, looked up): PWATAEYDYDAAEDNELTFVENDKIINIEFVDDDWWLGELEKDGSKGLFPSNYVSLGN

T16: Lsb3, P43603
T16 sequence (P43603 385-451, looked up): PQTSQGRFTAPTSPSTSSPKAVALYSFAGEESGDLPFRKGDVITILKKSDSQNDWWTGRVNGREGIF

T17: Pin3, Q06449
T17 sequence (Q06449 53-122, looked up): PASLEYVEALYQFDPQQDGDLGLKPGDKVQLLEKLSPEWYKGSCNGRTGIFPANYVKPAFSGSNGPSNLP

T18: Hof1, Q05080
T18 sequence (Q05080 590-669, looked up): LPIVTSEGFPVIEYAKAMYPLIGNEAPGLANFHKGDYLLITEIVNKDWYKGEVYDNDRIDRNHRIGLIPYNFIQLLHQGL

T19: Boi1, P38041
T19 sequence (P38041 1-86, looked up): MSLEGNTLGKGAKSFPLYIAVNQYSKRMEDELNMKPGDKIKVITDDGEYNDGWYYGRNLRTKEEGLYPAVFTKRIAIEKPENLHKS

T20: Bud14, P27637
T20 sequence (P27637 247-328, looked up): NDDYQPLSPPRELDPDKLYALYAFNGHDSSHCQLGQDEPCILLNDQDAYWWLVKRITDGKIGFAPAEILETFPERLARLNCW

T21: Cdc25, P04821
T21 sequence (P04821 50-136, looked up): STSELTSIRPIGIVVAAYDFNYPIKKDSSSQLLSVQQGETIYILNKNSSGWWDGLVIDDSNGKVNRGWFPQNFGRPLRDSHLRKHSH


How the values were obtained:
Assay in all cases: SPOT array
Pex13, P80667 = biological target: T1, Pex13, P80667; settings: median of control spots 1341
Hse1, P38753 = biological target: T2, Hse1, P38753; settings: median of control spots 1727
Fus1, P11710 = biological target: T3, Fus1, P11710; settings: median of control spots 1200
Nbp2, Q12163 = biological target: T4, Nbp2, Q12163; settings: median of control spots 357
Sla1-3, P32790 = biological target: T5, Sla1-3, P32790; settings: median of control spots 5475
Lsb4, P32793 = biological target: T6, Lsb4, P32793; settings: median of control spots 397
Bbc1, P47068 = biological target: T7, Bbc1, P47068; settings: median of control spots 796
Lsb1, P53281 = biological target: T8, Lsb1, P53281; settings: median of control spots 388
Myo5, Q04439 = biological target: T9, Myo5, Q04439; settings: median of control spots 471
Sho1, P40073 = settings: median of control spots 1148
Sequence of Sho1, P40073 (P40073 287-367): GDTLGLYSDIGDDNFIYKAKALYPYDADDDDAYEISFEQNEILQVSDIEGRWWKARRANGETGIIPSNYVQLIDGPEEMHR

Bem1-1, P29366 = settings: median of control spots 4282
Sequence of Bem1-1, P29366 (P29366 55-141): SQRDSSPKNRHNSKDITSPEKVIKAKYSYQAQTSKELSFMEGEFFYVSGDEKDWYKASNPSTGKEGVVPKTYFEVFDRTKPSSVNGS

Sla1-2, P32790 = biological target: T10, Sla1-2, P32790; settings: median of control spots 712
Bem1-2, P29366 = settings: median of control spots 4347
Sequence of Bem1-2, P29366 (P29366 139-227): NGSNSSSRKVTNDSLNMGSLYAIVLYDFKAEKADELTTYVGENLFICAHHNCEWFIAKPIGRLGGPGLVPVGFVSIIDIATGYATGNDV

Bzz1-1, P38822 = biological target: T11, Bzz1-1, P38822; settings: median of control spots 4446
Rvs167, P39743 = settings: median of control spots 2707
Sequence of Rvs167, P39743 (P39743 419-482): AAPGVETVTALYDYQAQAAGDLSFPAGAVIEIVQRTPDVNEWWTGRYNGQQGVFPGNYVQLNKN

Bzz1-2, P38822 = biological target: T12, Bzz1-2, P38822; settings: median of control spots 4538
Cyk3, Q07533 = biological target: T13, Cyk3, Q07533; settings: median of control spots 1451
Boi2, P39969 = biological target: T14, Boi2, P39969; settings: median of control spots 1161
Abp1, P15891 = biological target: T15, Abp1, P15891; settings: median of control spots 935
Lsb3, P43603 = biological target: T16, Lsb3, P43603; settings: median of control spots 406
Pin3, Q06449 = biological target: T17, Pin3, Q06449; settings: median of control spots 2171
Hof1, Q05080 = biological target: T18, Hof1, Q05080; settings: median of control spots 4086
Boi1, P38041 = biological target: T19, Boi1, P38041; settings: median of control spots 1162
Bud14, P27637 = biological target: T20, Bud14, P27637; settings: median of control spots 956
Cdc25, P04821 = biological target: T21, Cdc25, P04821; settings: median of control spots 969
Myo3, P36006 = settings: median of control spots 468
GST = settings: median of control spots 978

Row | Binder | SPOT intensity (Pex13, P80667) | SPOT intensity (Hse1, P38753) | SPOT intensity (Fus1, P11710) | SPOT intensity (Nbp2, Q12163) | SPOT intensity (Sla1-3, P32790) | SPOT intensity (Lsb4, P32793) | SPOT intensity (Bbc1, P47068) | SPOT intensity (Lsb1, P53281) | SPOT intensity (Myo5, Q04439) | SPOT intensity (Sho1, P40073) | SPOT intensity (Bem1-1, P29366) | SPOT intensity (Sla1-2, P32790) | SPOT intensity (Bem1-2, P29366) | SPOT intensity (Bzz1-1, P38822) | SPOT intensity (Rvs167, P39743) | SPOT intensity (Bzz1-2, P38822) | SPOT intensity (Cyk3, Q07533) | SPOT intensity (Boi2, P39969) | SPOT intensity (Abp1, P15891) | SPOT intensity (Lsb3, P43603) | further results
1 | QTREPNEPPPPSPAM | 7 | 0 | 0 | 0 | 0 | 13 | 0 | 0 | 515 | 0 | 1 | 0 | 0 | 0 | 4 | 0 | 1 | 3 | 7 | 2 | SPOT intensity (Pin3, Q06449): 21; SPOT intensity (Hof1, Q05080): 0; SPOT intensity (Boi1, P38041): 0; SPOT intensity (Bud14, P27637): 0; SPOT intensity (Cdc25, P04821): 0; SPOT intensity (Myo3, P36006): 502; SPOT intensity (GST): 0
2 | GKFIPSRPAPKPPSS | 362 | 0 | 0 | 2880 | 492 | 56 | 138 | 360 | 593 | 22 | 1 | 0 | 14600 | 2 | 5 | 52 | 2 | 4 | 231 | 21 | SPOT intensity (Pin3, Q06449): 12; SPOT intensity (Hof1, Q05080): 0; SPOT intensity (Boi1, P38041): 3; SPOT intensity (Bud14, P27637): 0; SPOT intensity (Cdc25, P04821): 4; SPOT intensity (Myo3, P36006): 553; SPOT intensity (GST): 0
3 | MTKTPETSPPKRPMG | 8 | 0 | 0 | 0 | 0 | 36 | 0 | 3 | 499 | 5 | 0 | 2 | 3 | 3 | 0 | 4 | 0 | 0 | 75 | 34 | SPOT intensity (Pin3, Q06449): 24; SPOT intensity (Hof1, Q05080): 16; SPOT intensity (Boi1, P38041): 0; SPOT intensity (Bud14, P27637): 0; SPOT intensity (Cdc25, P04821): 2; SPOT intensity (Myo3, P36006): 455; SPOT intensity (GST): 0
4 | KTKQQKPAIPQKKSF | 5 | 6 | 0 | 0 | 0 | 2 | 1 | 0 | 1 | 38 | 0 | 0 | 5 | 0 | 4 | 9 | 0 | 0 | 617 | 4 | SPOT intensity (Pin3, Q06449): 3; SPOT intensity (Hof1, Q05080): 0; SPOT intensity (Boi1, P38041): 0; SPOT intensity (Bud14, P27637): 0; SPOT intensity (Cdc25, P04821): 3; SPOT intensity (Myo3, P36006): 2; SPOT intensity (GST): 1
5 | DTFLPPPPPPPSNFE | 8 | 0 | 0 | 0 | 0 | 0 | 0 | 0 | 453 | 0 | 0 | 0 | 0 | 3 | 0 | 0 | 0 | 3 | 0 | 0 | SPOT intensity (Pin3, Q06449): 0; SPOT intensity (Hof1, Q05080): 0; SPOT intensity (Boi1, P38041): 1; SPOT intensity (Bud14, P27637): 0; SPOT intensity (Cdc25, P04821): 0; SPOT intensity (Myo3, P36006): 518; SPOT intensity (GST): 0
6 | AAHKTKPSIPPKKVE | 2 | 0 | 1 | 0 | 0 | 0 | 0 | 0 | 0 | 4 | 0 | 0 | 0 | 0 | 0 | 0 | 0 | 1 | 239 | 0 | SPOT intensity (Pin3, Q06449): 0; SPOT intensity (Hof1, Q05080): 0; SPOT intensity (Boi1, P38041): 0; SPOT intensity (Bud14, P27637): 0; SPOT intensity (Cdc25, P04821): 0; SPOT intensity (Myo3, P36006): 0; SPOT intensity (GST): 0
